# Reference: publication PMC3876282
# Molecular target: AvrPtoB BAK1-interacting domain, 250-359 (UniProt Q8RSY1)
# Experiment: gel filtration co-migration, Coomassie SDS-PAGE
# Conditions: reference: wild-type BAK1-KD
Substance,binding against the reference (sites T450),binding against the reference (sites T449)
"BAK1 kinase domain, 250-591 (from UniProt Q94F62) BAK1-KD T450A",lost,–
"BAK1 kinase domain, 250-591 (from UniProt Q94F62) BAK1-KD T449A",–,lost
